Laboratory results as given in US20060105320A1.

Columns and labels:
[1] = target: NM (N-terminal and middle region of Sup35p), soluble / unpolymerized (Saccharomyces cerevisiae) (UniProt P05453); test: cell-based or functional assay
[2] = target: biotinylated NM^K184C seed (Saccharomyces cerevisiae) (UniProt P05453); test: capture of biotinylated seed on Streptavidin-coated Dynabeads, SDS wash, scintillation counting
Chain of biotinylated NM^K184C seed (Saccharomyces cerevisiae) (P05453 1-253 K184C): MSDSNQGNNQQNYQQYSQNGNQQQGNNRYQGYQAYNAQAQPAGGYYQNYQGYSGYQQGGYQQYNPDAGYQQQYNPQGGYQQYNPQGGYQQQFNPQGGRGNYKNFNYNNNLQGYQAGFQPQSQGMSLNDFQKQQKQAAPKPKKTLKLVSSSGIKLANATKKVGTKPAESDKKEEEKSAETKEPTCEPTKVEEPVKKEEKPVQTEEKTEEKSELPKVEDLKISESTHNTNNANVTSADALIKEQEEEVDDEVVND

Chain of NM (N-terminal and middle region of Sup35p), soluble / unpolymerized (Saccharomyces cerevisiae) (P05453 1-253): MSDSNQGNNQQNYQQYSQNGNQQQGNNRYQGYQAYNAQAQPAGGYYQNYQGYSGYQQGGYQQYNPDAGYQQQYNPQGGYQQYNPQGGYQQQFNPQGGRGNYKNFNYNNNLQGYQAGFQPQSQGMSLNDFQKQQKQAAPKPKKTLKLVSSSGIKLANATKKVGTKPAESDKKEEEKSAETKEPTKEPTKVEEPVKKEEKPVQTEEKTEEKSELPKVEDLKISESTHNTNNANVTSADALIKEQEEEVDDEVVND

Substance	IC50 of inhibition of NM fibrillization, no nucleotide [1]	IC50 of inhibition of NM fibrillization, with ADP [1]	IC50 of inhibition of NM fibrillization, with AMP-PNP [1]	IC50 of inhibition of NM fibrillization, with ATP hydrolysis [1]	fraction of seed-bound NM soluble in SDS [2]
Hsp104 (from UniProt P31539 1-908) (enzyme)	7.6 µM	3.1 µM	0.2 µM	0.1 µM	
NM^T158C-iodo[1-^14C]acetamide (soluble) (from UniProt P05453 1-253)					50%
